From article PMC11366018 (Nature Communications, 2024)
Substitutions are numbered along the chain they refer to. Several values for one entry are separate records, joined by “and”; a condition that tells them apart may be missing. Equal values may be shown once.

B1: H18 (antibody, V domains shown)
VH: QVQLQESGPGLVKPSETLSLTCTVSGGSVSSGGYFWSWIRQPPGKGLEWIGCIYYSGSTNYNPSLKSRVTISVDTSKDQFSLKLSSVTAADTAVYYCARQLWLRGRFDYWGQGTLVTVSS
VL: NFMLTQPHSVSESPGKTVTISCTRSSGSIASNYVQWYQQRPGSSPTTVIYEDNQRPSGVPDRFSGSIDSSSNSASLTISGLKTEDEADYYCQSYDSSNVVFGGGTKLTVL
notes: human IgG1
B2: R1-26 (antibody, V domains shown)
VH: EVQLVESGGGLVQPGGSLRLSCAASGFTFSSYWMSWVRQAPGKGLEWVANIKQDGSEKYYVDSVKGRFTISRDNAKNSLYLQMNSLRAEDTAVYYCARGQLGPWVGVDYWGQGTLVTVSS
VL: B1 VL with R24G, S44A, V99W, K106Q
B3: S2A4 (antibody, V domains shown)
VH: EVQLVESGGGLVQPGGSLRLSCAASGFTFSSYWMNWVRQAPGKGLEWVANIKQDGSEKYYVDSVKGRFTISRDNAKNSLFLQMNSLRAEDTAVYYCARVWWLRGSFDYWGQGTLVTVSS
VL: NFMLTQPHSVSESPGKTVTISCTGSSGSIASNYVQWYQQRPGSAPTTVIYEDNQRPSGVPDRFSGSIDSSSNSASLTISGLKTEDEADYYCQSYDSSNHVVFGGGTKLTVL

Molecular target: SARS-CoV-2 RBD (WT) (SARS-CoV-2 Wuhan-Hu-1 (wildtype), UniProt P0DTC2)
Test: BLI
Details: both partners purified

Row | Binder | Kd | koff | kon
1 | B1 | 29.5 nM and 29 nM | 0.00931 s⁻¹ and 0.0162 s⁻¹ | 316000 M⁻¹ s⁻¹ and 560000 M⁻¹ s⁻¹
2 | B2 | 5.75 nM | 0.00291 s⁻¹ | 507000 M⁻¹ s⁻¹
3 | B3 | 25.3 nM | 0.0096 s⁻¹ | 380000 M⁻¹ s⁻¹
